Laboratory results: patent publication US20250382726A1
Each block holds one molecule with its values, some of them ahead of it.

How the values were obtained:
[1] = target: recombinant Cathepsin S protein (UniProt P25774); assay: BLI (Octet), captured IgG, Cathepsin S 200 ng/ml, 25 C; Run 1; Affinity to be determined
[2] = target: recombinant HER2 (Acro Biosystems; P/N. H5225) (UniProt P04626); assay: BLI (Octet), IgG captured on anti-human Fc biosensors, HER2 5-0.078 nM in solution, 37 C, 1:1 global fit, mean of duplicates
[3] = target: recombinant Cathepsin S protein (UniProt P25774); assay: BLI (Octet), IgG captured on anti-human biosensors, 200 ng/ml recombinant Cathepsin S, 25 C
[4] = target: recombinant Cathepsin S protein (UniProt P25774); assay: BLI (Octet), captured IgG, Cathepsin S 200 ng/ml, 25 C; Run 1, first Fsn0503h control row
[5] = target: recombinant Cathepsin S protein (UniProt P25774); assay: BLI (Octet), captured IgG, Cathepsin S 200 ng/ml, 25 C; Run 2, Fsn0503h control
[6] = target: recombinant Cathepsin S protein (UniProt P25774); assay: BLI (Octet), captured IgG, Cathepsin S 200 ng/ml, 25 C; Run 1, Fsn0503h control
[7] = target: recombinant Cathepsin S protein (UniProt P25774); assay: BLI (Octet), captured IgG, Cathepsin S 200 ng/ml, 25 C; Run 2, second Fsn0503h control row

Kd [1]: < 0.001 nM
koff [1]: < 1e-07 s⁻¹
kon [1]: 45100 M⁻¹ s⁻¹
Molecule: WT (antibody)

Kd [2]: 0.126 nM
Molecule: Wild-Type (antibody having sequence of trastuzumab, transiently expressed in parallel with the variants)

Kd [3]: 4.45 nM
Kd [4]: 3.05 nM
koff [4]: 0.000121 s⁻¹
kon [4]: 39600 M⁻¹ s⁻¹
Kd [5]: 4.39 nM
koff [5]: 0.000188 s⁻¹
kon [5]: 42800 M⁻¹ s⁻¹
Kd [6]: 5.47 nM
koff [6]: 0.000144 s⁻¹
kon [6]: 26200 M⁻¹ s⁻¹
Kd [7]: 5.11 nM
koff [7]: 0.000242 s⁻¹
B1: Fsn0503h, humanised anti-Cathepsin S antibody (Fusion Antibodies) (antibody, V domains shown)
VH: EVQLVESGGGLVKPGGSLRLSCAASGFAFSSYDMSWVRQAPGKGLEWVAYITTGGVNTYYPDTVKGRFTISRDNAKNTLYLQMSSLKSEDTAVYYCARHSYFDYWGQGTTVTVSS
VL: DVVMTQSPLSLPVTLGQPASISCRSSQSLVHSNGNTYLHWYLQKPGQSPQLLIYKVSNRFSGVPDRFSGSGSGTDFTLKISRVEAEDVGVYYCSQTTHVPPTFGQGTKLEIK
